Results from patent publication US7063845 (KIRIN BEER, dated 2006).

Biological target: T1, human CD40 on the cell surface (EL-4 cells transfected with full length human CD40 cDNA); Ramos B cells; human … (human, UniProt P25942 21-277)
T1 construct: whole, on cells; Ramos and peripheral B cells carry their own CD40; also called cell surface human CD40
Assay: FACS on EL-4 cells expressing human CD40

T1 sequence (P25942 21-277): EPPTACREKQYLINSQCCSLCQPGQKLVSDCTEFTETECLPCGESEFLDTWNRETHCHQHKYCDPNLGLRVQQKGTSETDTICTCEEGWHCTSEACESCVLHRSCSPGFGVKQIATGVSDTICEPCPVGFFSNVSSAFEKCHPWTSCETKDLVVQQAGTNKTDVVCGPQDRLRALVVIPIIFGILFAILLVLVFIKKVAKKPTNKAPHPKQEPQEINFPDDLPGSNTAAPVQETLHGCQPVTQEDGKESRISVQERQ

binding result: binds
B1: recombinant human anti-CD40 antibody F5-77 (antibody, V domains shown)
VH: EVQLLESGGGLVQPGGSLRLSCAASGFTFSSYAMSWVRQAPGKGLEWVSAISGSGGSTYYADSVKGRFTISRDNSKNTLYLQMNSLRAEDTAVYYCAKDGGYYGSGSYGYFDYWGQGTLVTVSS
VL: DIQMTQSPSSVSGSVGDRVTITCRASQGISSWLAWYQQKPGKAPKLLIYAGSSLQSGVPSRFSGSGFGTDFTLTISSLQPEDFATYYCQQASSFPRTFGQGTKVEIK
notes: also called F5-77 (K1H1); printed F5-17 in claim 19
